Measurements as given in PMC139967 (BMC Biochemistry, 2002).

Assays:
[1] = target: bovine-brain calmodulin (bovine, UniProt P62157 1-149); test: other fluorescence titration
[2] = target: Alexa Fluor 488 calmodulin (UniProt P62157 1-149); test: other fluorescence titration

| Binder | stoichiometry N [1] [peptide per calmodulin] | Kd [2] [nM] |
| --- | --- | --- |
| CRKHSIATFLQARWRGYHQRQKFL [bullfrog Myo1c IQ1 peptide] | 1 |  |
| CKRKWAVDVVRRFIKGFIYRNQPR [bullfrog Myo1c IQ3 peptide] | 1 | 2000 |
| CHMKHSAVEIQSWWRGTIGRRKAA [bullfrog Myo1c IQ2 peptide] | 1 |  |
